IntAct's records for PubMed 11604410

B1: Serine protease HTRA2, mitochondrial (Mus musculus), Q9JIY5 (parent)
chain: MAALKAGRGANWSLRAWRALGGIFWRKPPLLAPDLRALLTSGTPDSQIWMTYGTPSLPAQVPEGFLASRADLTSRTPDLWARLNVGTSGSSDQEARRSPGSRRREWLAVAVGAGGAVVLLLWGWGRGLSTVLAAVPAPPPTSPRSQYNFIADVVEKTAPAVVYIEILDRHPFSGREVPISNGSGFVVASDGLIVTNAHVVADRRRVRVRLPSGDTYEAMVTAVDPVADIATLRIQTKEPLPTLPLGRSADVRQGEFVVAMGSPFALQNTITSGIVSSAQRPARDLGLPQNNVEYIQTDAAIDFGNSGGPLVNLDGEVIGVNTMKVTAGISFAIPSDRLREFLHRGEKKNSWFGTSGSQRRYIGVMMLTLTPSILIELQLREPSFPDVQHGVLIHKVILGSPAHRAGLRPGDVILAIGEKLAQNAEDVYEAVRTQSQLAVRIRRGSETLTLYVTPEVTE
B2: Diablo IAP-binding mitochondrial protein (Mus musculus), Q9JIQ3 (parent)
chain: MAALRSWVTRSVCSLFRYRQRFPVLANSKKRCFSELIKPWHKTVLTGFGMTLCAVPIAQKSEPQSLSNEALMRRAVSLVTDSTSTFLSQTTYALIEAITEYTKAVYTLVSLYRQYTSLLGKMNSQEEDEVWQVIIGARVEMTSKQQEYLKLETTWMTAVGLSEMAAEAAYQTGADQASITARNHIQLVKSQVQEVRQLSQKAETKLAEAQTKELHQKAQEVSDEGADQEEEAYLRED

Variants of: B1
Conditions: with xiap_human XIAP

Variant | effect of a mutation on the interaction
Y147I | increasing interaction

Variants of: B1
Conditions: with xiap_human XIAP
Remark: another data set of the same source

Variant | effect of a mutation on the interaction
R144G | disrupting interaction

Variants of: B2
Conditions: with xiap_mouse Xiap

Variant | effect of a mutation on the interaction
A54G | disrupting interaction
